T1: OX40-Fc (Mus musculus, UniProt P47741)
T1 construct: made in house
T1 sequence (P47741 20-211 limits assumed): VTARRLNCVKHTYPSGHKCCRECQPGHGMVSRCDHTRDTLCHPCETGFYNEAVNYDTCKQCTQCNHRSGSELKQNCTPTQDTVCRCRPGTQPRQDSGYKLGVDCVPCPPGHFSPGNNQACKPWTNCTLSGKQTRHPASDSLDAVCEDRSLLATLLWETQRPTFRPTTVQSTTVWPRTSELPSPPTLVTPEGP

B1: Fc-scOX40L: Fusion protein: Fc, PA, single-chain OX40L trimer (three OX40L joined by GGGSGGG linkers), His6; dimer of trimers (protein)
chain: SSSPAKDPPIQRLRGAVTRCEDGQLFISSYKNEYQTMEVQNNSVVIKCDGLYIIYLKGSFFQEVKIDLHFREDHNPISIPMLNDGRRIVFTVVASLAFKDKVYLTVNAPDTLCEHLQINDGELIVVQLTPGYCAPEGSYHSTVNQVPLGGGSGGGSSSPAKDPPIQRLRGAVTRCEDGQLFISSYKNEYQTMEVQNNSVVIKCDGLYIIYLKGSFFQEVKIDLHFREDHNPISIPMLNDGRRIVFTVVASLAFKDKVYLTVNAPDTLCEHLQINDGELIVVQLTPGYCAPEGSYHSTVNQVPLGGGSGGGSSSPAKDPPIQRLRGAVTRCEDGQLFISSYKNEYQTMEVQNNSVVIKCDGLYIIYLKGSFFQEVKIDLHFREDHNPISIPMLNDGRRIVFTVVASLAFKDKVYLTVNAPDTLCEHLQINDGELIVVQLTPGYCAPEGSYHSTVNQVPL
modifications: left off: Fc (human IgG1: hinge, CH2, CH3), N-terminal, kept | PA tag (…), internal (between Fc and the first OX40L), kept | His6, C-terminal, kept
notes: Fusion protein: Fc, PA, single-chain OX40L trimer (three OX40L joined by GGGSGGG linkers), His6; dimer of trimers
B2: scOX40L-Fc: Fusion protein: OX40L, Linker, OX40L, Linker, OX40L, Fc, PA, and His6 (protein)
chain: SSSPAKDPPIQRLRGAVTRCEDGQLFISSYKNEYQTMEVQNNSVVIKCDGLYIIYLKGSFFQEVKIDLHFREDHNPISIPMLNDGRRIVFTVVASLAFKDKVYLTVNAPDTLCEHLQINDGELIVVQLTPGYCAPEGSYHSTVNQVPLGGGSGGGSSSPAKDPPIQRLRGAVTRCEDGQLFISSYKNEYQTMEVQNNSVVIKCDGLYIIYLKGSFFQEVKIDLHFREDHNPISIPMLNDGRRIVFTVVASLAFKDKVYLTVNAPDTLCEHLQINDGELIVVQLTPGYCAPEGSYHSTVNQVPLGGGSGGGSSSPAKDPPIQRLRGAVTRCEDGQLFISSYKNEYQTMEVQNNSVVIKCDGLYIIYLKGSFFQEVKIDLHFREDHNPISIPMLNDGRRIVFTVVASLAFKDKVYLTVNAPDTLCEHLQINDGELIVVQLTPGYCAPEGSYHSTVNQVPL
modifications: left off: Fc (human IgG1: hinge, CH2, CH3), C-terminal, kept | PA tag (…), C-terminal, kept | His6, C-terminal, kept

Columns and labels:
[1] = tested on: antigen-specific CD4+ T cells; test: Activation-induced marker (AIM) assay on dLN cells from TNP-KLH/CFA-immunized mice; type: in vivo, C57BL/6 mice; conditions: 20 µg i.p. on days 1 and 3, KLH 18 hours
Experimental: To perform the activation-induced marker (AIM) assay, a valuable method to detect antigen-specific CD4^+ T cells ([29], [30]), draining lymph node (dLN) cells were initially incubated with IgG from rat serum (14131, Merck) to block nonspecific binding. The following antibodies were used for cell-surface staining: PE/Cyanine7 anti-mouse CD4 (GK1.5, 100421, BioLegend), Alexa Fluor® 488 anti-mouse CD25 (PC61, 102018, BioLegend), and APC anti-mouse CD134 (OX-40) (OX-86, 119413, BioLegend). For Foxp3 staining, cells were fixed and permeabilized with the eBioscience™ Foxp3/Transcription Factor Staining Buffer Set (00-5523-00, Thermo Fisher), then stained with PE Anti-Mo/Ra FOXP3, eBioscience™ (FJK-16s, 12-5773-08, Thermo Fisher). Data were acquired on a FACS Canto II or a Celesta (BD Biosciences, Franklin Lakes, NJ, U.S.A.) and analyzed with BD FACS Diva software version 9 or Flowing software version 2 (Turku Bioscience, Turku, Finland, http://flowingsoftware.btk.fi/).
Groups of C57BL/6 mice from both male and female mice aged between 5 and 15 weeks were immunized subcutaneously at the footpad with 100 µg of 2,4,6-trinitrophenyl-conjugated keyhole limpet hemocyanin (TNP-KLH) emulsified in complete Freund’s adjuvant (CFA) (F5881, Merck) on day 0. […] Cell viability on day 3 was assessed with a 3-(4,5-dimethylthiazol-2-yl)-2,5-diphenyl-tetrazolium (MTT) (M2128, Merck) assay.

[2] = tested on: antigen-specific T cell responses of draining lymph node cells; test: Antigen recall responses of dLN cells from TNP-KLH/CFA-immunized mice (cytokine ELISA, MTT proliferation); type: in vivo, C57BL/6 mice; conditions: for antigen-specific T cell responses (recall IFN-γ, IL-17, IL-4 production and proliferation of dLN cells): 20 µg i.p. on days 1 and 3, TNP-KLH/CFA day 0, dLN day 7, KLH recall 3 days
From the text: The following reagents were used for the measurement of cytokines from T cells: anti-IL-2 (JES6-1A12, 503701, BioLegend, San Diego, CA, U.S.A.) capture antibody, biotin-anti-IL-2 (JES6-5H4, 503803, BioLegend) detection antibody, anti-IFN-γ (R4-6A2, 505702, BioLegend) capture antibody, biotin-anti-IFN-γ (XMG1.2, 505804, BioLegend) detection antibody, anti-IL-4 (11B11, 504101, BioLegend) capture antibody, biotin-anti-IL-4 (BVD6-24G2, 504201, BioLegend) detection antibody, anti-IL-17A (TC11-18H10.1, 506901, BioLegend) capture antibody, biotin-anti-IL-17A (TC11-8H4, 507001, BioLegend) detection antibody, HRP streptavidin (405210, BioLegend), and 3,3’,5,5’-tetramethylbenzidine (TMB, 421101, BioLegend). The absorbance was measured at 450 nm or 620 nm using a FilterMax F5 (Molecular Devices, San Jose, CA, U.S.A.).
Groups of C57BL/6 mice from both male and female mice aged between 5 and 15 weeks were immunized subcutaneously at the footpad with 100 µg of 2,4,6-trinitrophenyl-conjugated keyhole limpet hemocyanin (TNP-KLH) emulsified in complete Freund’s adjuvant (CFA) (F5881, Merck) on day 0. Recombinant proteins in PBS were injected intraperitoneally on days 1 and 3. On day 7, pooled dLN cells were plated in 200 µL volumes in 96-well plates in triplicate in the presence or absence of KLH. Cells were harvested at 18 hours for the AIM assay. Culture supernatants were harvested at 72 hours for cytokine ELISA. Cell viability on day 3 was assessed with a 3-(4,5-dimethylthiazol-2-yl)-2,5-diphenyl-tetrazolium (MTT) (M2128, Merck) assay.

OX40-Fc = biological target: T1, OX40-Fc; parameters: method as in PMID 36450532, PMID 37371066; conditions: previous studies; ref [23], [24]; cited from earlier work

Molecule	frequency of OX40+CD25+Foxp3+CD4+ cells (AIM assay) [1]	frequency of OX40+CD25+Foxp3-CD4+ cells (AIM assay) ([1]; compared to control (PBS) or OX86)	antigen-specific T cell responses (recall IFN-γ, IL-17, IL-4 production and proliferation of dLN cells) [2]	induction of IL-4-producing cells ([2]; TNP-KLH/CFA-immunized mice, Figures 7, 9)	specific interaction with OX40 (OX40-Fc)
B1	significantly enhanced frequency	significantly increased frequency	elicited stronger antigen-specific T cell responses than Fc-MBL-OX40L (B) and scOX40L-Fc (D)	promoted the induction of IL-4-producing cells	specifically interact with OX40
B2	–	–	triggered significantly higher T cell responses compared to the None (PBS) control group	–	–
